Reference: paper PMC9482650, “Quantitative fragmentomics allow affinity mapping of interactomes” (Nature Communications, 2022)

T1: APBA2_2, Q99767
T1 sequence (Q99767 654-744, limits assumed, looked up): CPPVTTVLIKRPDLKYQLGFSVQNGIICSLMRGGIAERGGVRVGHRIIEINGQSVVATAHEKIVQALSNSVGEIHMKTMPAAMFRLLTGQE

T2: GRIP1_4, Q9Y3R0
T2 sequence (Q9Y3R0 467-571, limits assumed, looked up): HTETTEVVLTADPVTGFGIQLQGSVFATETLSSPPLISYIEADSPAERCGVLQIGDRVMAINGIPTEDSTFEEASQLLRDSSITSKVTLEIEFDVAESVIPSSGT

T3: LRRC7, Q96NW7
T3 sequence (Q96NW7 1440-1537, limits assumed, looked up): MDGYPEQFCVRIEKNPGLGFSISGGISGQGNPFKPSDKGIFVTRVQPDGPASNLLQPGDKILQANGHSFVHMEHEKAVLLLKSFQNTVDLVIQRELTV

T4: MPDZ_5, O75970
T4 sequence (O75970 695-796, limits assumed, looked up): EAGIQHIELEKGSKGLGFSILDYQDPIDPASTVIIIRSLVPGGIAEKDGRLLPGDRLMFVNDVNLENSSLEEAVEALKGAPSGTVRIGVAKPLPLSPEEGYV

T5: MPP2, Q14168
T5 sequence (Q14168 180-250, limits assumed, looked up): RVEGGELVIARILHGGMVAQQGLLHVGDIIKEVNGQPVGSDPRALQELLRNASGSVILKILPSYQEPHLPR

T6: MPP6, Q9NZW5
T6 sequence (Q9NZW5 125-219, limits assumed, looked up): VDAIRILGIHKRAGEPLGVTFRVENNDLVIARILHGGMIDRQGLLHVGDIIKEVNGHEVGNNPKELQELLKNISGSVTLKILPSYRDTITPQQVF

T7: MPP7, Q5T2T1
T7 sequence (Q5T2T1 134-230, limits assumed, looked up): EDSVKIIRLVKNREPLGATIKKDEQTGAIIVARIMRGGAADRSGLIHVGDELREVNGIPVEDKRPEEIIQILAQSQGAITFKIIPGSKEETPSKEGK

T8: NHERF3_1, Q5T2W1
T8 sequence (Q5T2W1 4-100, limits assumed, looked up): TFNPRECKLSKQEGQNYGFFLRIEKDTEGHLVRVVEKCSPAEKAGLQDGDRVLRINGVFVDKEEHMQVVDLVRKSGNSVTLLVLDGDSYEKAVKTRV

T9: PDZD2_2, O15018
T9 sequence (O15018 329-429, limits assumed, looked up): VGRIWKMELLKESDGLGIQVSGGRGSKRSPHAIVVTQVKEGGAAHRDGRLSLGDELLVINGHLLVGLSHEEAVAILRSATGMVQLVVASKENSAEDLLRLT

T10: PDZD7_3, Q9H5P4
T10 sequence (Q9H5P4 857-944, limits assumed, looked up): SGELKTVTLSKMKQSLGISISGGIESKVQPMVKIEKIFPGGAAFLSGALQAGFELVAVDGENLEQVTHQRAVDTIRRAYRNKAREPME

T11: RHPN1, Q8TCX5
T11 sequence (Q8TCX5 508-602, limits assumed, looked up): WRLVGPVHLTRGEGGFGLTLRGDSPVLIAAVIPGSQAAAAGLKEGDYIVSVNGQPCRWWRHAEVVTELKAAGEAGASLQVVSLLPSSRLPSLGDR

T12: SYNJ2BP, P57105
T12 sequence (P57105 8-110, limits assumed, looked up): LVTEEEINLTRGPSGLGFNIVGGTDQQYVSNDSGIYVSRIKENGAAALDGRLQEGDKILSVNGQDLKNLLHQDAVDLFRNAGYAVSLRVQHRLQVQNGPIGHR

T13: TJP3_3, O95049
T13 sequence (O95049 375-456, limits assumed, looked up): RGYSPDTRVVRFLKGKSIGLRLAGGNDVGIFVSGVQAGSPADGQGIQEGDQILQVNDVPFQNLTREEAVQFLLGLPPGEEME


What was measured:
Assay in all cases: holdup assay
Set-up in all cases: key: below the threshold = too weak to quantify, mostly under pKd 3.1 to 4
Conditions in all cases: plain residues with an end cap or a label only (N-terminal biotin on a linker: ado-ado)
[1] = target: T1, APBA2_2, Q99767
[2] = target: DLG1_1, Q12959
[3] = target: DLG4_3, P78352
[4] = target: FRMPD2_3, Q68DX3
[5] = target: GORASP1, Q9BQQ3
[6] = target: T2, GRIP1_4, Q9Y3R0
[7] = target: GRIP2_6, Q9C0E4
[8] = target: HTRA2, O43464
[9] = target: IL16_1, Q14005
[10] = target: LNX1_1, Q8TBB1
[11] = target: LNX1_2, Q8TBB1
[12] = target: T3, LRRC7, Q96NW7
[13] = target: MAGI1_2, Q96QZ7
[14] = target: MAGI2_4, Q86UL8
[15] = target: T4, MPDZ_5, O75970
[16] = target: T5, MPP2, Q14168
[17] = target: T6, MPP6, Q9NZW5
[18] = target: T7, MPP7, Q5T2T1
[19] = target: T8, NHERF3_1, Q5T2W1
[20] = target: T9, PDZD2_2, O15018
[21] = target: T10, PDZD7_3, Q9H5P4
[22] = target: T11, RHPN1, Q8TCX5
[23] = target: SCRIB_2, Q14160
[24] = target: T12, SYNJ2BP, P57105
[25] = target: T13, TJP3_3, O95049

Sequence of FRMPD2_3, Q68DX3 (Q68DX3 1073-1166): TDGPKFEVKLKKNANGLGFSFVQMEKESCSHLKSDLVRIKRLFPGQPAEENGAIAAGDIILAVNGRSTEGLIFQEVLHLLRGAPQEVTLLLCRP
Sequence of HTRA2, O43464 (O43464 355-458): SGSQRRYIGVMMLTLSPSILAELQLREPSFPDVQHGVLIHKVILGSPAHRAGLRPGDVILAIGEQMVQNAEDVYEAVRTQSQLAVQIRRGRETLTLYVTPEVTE
Sequence of MAGI2_4, Q86UL8 (Q86UL8 772-865): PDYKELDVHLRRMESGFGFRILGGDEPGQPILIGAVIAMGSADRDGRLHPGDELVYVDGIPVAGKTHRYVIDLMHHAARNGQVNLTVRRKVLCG
Sequence of IL16_1, Q14005 (Q14005 210-306): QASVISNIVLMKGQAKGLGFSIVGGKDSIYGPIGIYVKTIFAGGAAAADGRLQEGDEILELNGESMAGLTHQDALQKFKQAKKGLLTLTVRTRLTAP
Sequence of LNX1_2, Q8TBB1 (Q8TBB1 371-470): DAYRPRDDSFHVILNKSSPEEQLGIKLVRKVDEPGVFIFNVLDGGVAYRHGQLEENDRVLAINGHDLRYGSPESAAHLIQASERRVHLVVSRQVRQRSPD
Sequence of SCRIB_2, Q14160 (Q14160 857-960): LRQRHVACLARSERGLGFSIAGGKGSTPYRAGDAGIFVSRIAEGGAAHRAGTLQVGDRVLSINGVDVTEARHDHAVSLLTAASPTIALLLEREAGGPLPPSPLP
Sequence of LNX1_1, Q8TBB1 (Q8TBB1 261-371): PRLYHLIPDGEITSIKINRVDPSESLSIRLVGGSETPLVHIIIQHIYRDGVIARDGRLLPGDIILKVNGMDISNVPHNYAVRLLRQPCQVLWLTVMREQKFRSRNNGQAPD
Sequence of DLG4_3, P78352 (P78352 306-403): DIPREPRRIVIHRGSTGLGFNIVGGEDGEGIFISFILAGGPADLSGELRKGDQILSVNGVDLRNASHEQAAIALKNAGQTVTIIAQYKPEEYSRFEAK
Sequence of MAGI1_2, Q96QZ7 (Q96QZ7 456-580): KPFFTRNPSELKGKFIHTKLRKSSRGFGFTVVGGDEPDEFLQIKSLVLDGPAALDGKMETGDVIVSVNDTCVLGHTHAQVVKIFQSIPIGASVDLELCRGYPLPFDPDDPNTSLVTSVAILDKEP
Sequence of GORASP1, Q9BQQ3 (Q9BQQ3 1-208): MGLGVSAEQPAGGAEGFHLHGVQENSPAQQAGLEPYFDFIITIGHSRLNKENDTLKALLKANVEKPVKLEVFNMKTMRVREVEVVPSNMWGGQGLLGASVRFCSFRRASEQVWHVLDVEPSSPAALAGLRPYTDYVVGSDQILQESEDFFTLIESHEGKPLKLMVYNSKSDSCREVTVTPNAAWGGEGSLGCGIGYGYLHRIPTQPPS
Sequence of GRIP2_6, Q9C0E4 (Q9C0E4 648-740): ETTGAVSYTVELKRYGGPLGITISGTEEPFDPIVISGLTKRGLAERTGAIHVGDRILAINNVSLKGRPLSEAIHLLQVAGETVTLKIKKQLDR

| Binder | pKd [1] | pKd [2] | pKd [3] | pKd [4] | pKd [5] | pKd [6] | pKd [7] | pKd [8] | pKd [9] | pKd [10] | pKd [11] | pKd [12] | pKd [13] | pKd [14] | pKd [15] | pKd [16] | pKd [17] | pKd [18] | pKd [19] | pKd [20] | also measured |
| --- | --- | --- | --- | --- | --- | --- | --- | --- | --- | --- | --- | --- | --- | --- | --- | --- | --- | --- | --- | --- | --- |
| PTPDLPQTRV [KLHDC7A, Q5VTJ3] | below the threshold | below the threshold | 3.72 | below the threshold | below the threshold | below the threshold | below the threshold | below the threshold | 3.59 | 3.89 | below the threshold | below the threshold | below the threshold | below the threshold | below the threshold | below the threshold | below the threshold | below the threshold | 4.36 | 3.75 | pKd [21]: 5.04; pKd [22]: 4.32; pKd [23]: 3.48; pKd [24]: below the threshold; pKd [25]: below the threshold |
| QRPYRRGSEI [KCNJ18, B7U540] | below the threshold | below the threshold | below the threshold | below the threshold | below the threshold | below the threshold | below the threshold | below the threshold | 3.61 | 3.83 | below the threshold | below the threshold | below the threshold | below the threshold | below the threshold | below the threshold | below the threshold | below the threshold | below the threshold | 4.79 | pKd [21]: below the threshold; pKd [22]: 3.75; pKd [23]: 3.49; pKd [24]: 4.91; pKd [25]: below the threshold |
| ARGPPRESEV [FAM110D, Q8TAY7] | below the threshold | 4.7 | 4.42 | below the threshold | below the threshold | below the threshold | below the threshold | below the threshold | 4.97 | 3.78 | below the threshold | 4.15 | 4.32 | 4.09 | below the threshold | below the threshold | below the threshold | below the threshold | 4.03 | 4.83 | pKd [21]: 4.47; pKd [22]: 3.76; pKd [23]: 4.9; pKd [24]: 5.35; pKd [25]: below the threshold |
